Test results: US6664090B1, “Carboxylesterase nucleic acid molecules, proteins and uses thereof” (Heska Corporation, priority 1996, dated 2003)

Experiments:
[1] = juvenile hormone esterase (JHE) activity assay, hydrolysis of 3H-juvenile hormone to juvenile hormone acid; format: biochemical; details: purified recombinant protein from S. frugiperda:pVL-nfE91600 supernatant, size exclusion fractions
Protocol: Unlabeled juvenile hormone (JH; available from ICN Biomedicals, Inc., Aurora, Ohio) was diluted in hexane to concentration of about 0.025 M. Labeled 10-^3H-juvenile hormone (^3H-JH; available from Dupont-NEN) was diluted in hexane to concentration of about 80,000 cpm/μl. A JH substrate mixture was prepared by mixing about 20 μl of unlabeled JH with about 80 μl of ^3H-JH (about 5 μCi) in a 4 ml screw cap vial. The substrate mixture was then covered with nitrogen (i.e., “blanketed”) and the solvent contained in the mixture was evaporated by heating the mixture at 35° C. When just dry, about 1 ml of absolute anhydrous ethanol (final concentration 5×10^−4 M, or 6400 cpm/μl) was added to the vial. The substrate mixture was then stored at −20° C.
About 5 equivalents of each tissue (about 5 μl of protein) was added into the bottom of a small glass autosampler vial. About 95 μl of Tris-buffered saline (TBS) was added to each vial to bring the final volume in each vial to about 100 μl. Two control samples were also prepared by adding 100 μl TBS to two separate vials. […]
To measure labeled juvenile hormone acid, about 250 μl isooctane was added to each vial. […] The amount of ^3H-juvenile hormone acid contained in each vial was determined using a Beckman LS-1801 liquid scintillation counter (available from Beckman, Fullerton, Calif.).

[2] = general carboxylesterase (CE) activity assay, hydrolysis of α-napthyl acetate, Fast Blue, 590 nm; format: biochemical; details: purified recombinant protein from S. frugiperda:pVL-nfE91600 supernatant, size exclusion fractions
Protocol: Tissue samples and soluble extracts were prepared as described above in Example 1, except not labelled, from unfed (UF) and bovine blood-fed 1st instar flea larvae, bovine blood-fed 3rd instar flea larvae, bovine blood-fed prepupal flea larvae, unfed whole adult fleas, cat blood-fed adult (ACF) whole fleas, cat blood-fed adult fleas that have had their heads and midguts removed (referred to herein as fed adult partial fleas), unfed adult flea midguts and cat blood-fed adult flea midguts. About 5 tissue equivalents of each tissue were assayed for general CE activity using the following method. Tissue samples of about 5 μl were added to separate wells of flat-bottomed microtiter plate (available from Becton Dickinson, Lincoln Park, N.J.). A control well was prepared by adding about 5 μl of Tris buffer to an empty well of the plate. About 95 μl of 25 mM Tris-HCl (pH 8.0) was then added to each sample to increase the volume in each well to about 100 μl. About 100 μl of 0.25 mM α-napthyl acetate (available from Sigma, St. Louis, Mo.) dissolved in 25 mM Tris-HCl (pH 8.0) was then added to each well. […]
The microtiter plate was then analyzed using a Cambridge Technology, Inc. (Watertown, Pa.) model 7500 Microplate Reader set to 590 nm. The absorbance value for the control sample was subtracted from absorbance values of experimental samples, such that the background value was zero.

B1: PfE9528: full-length flea esterase protein of about 528 amino acids, SEQ ID NO:37, encoded by nfE92007 (protein, listed as Ctenocephalides felis)
chain: MADLQVTLLQGTLKGKEQISEKGNVFHSYSGIPYAKPPVGDLRFKPPQPAEPWSGVLDASKEGNSCRSVHFIKKIKVGAEDCLYLNVYVPKTSEKSLLPVMVWIHGGGFFMGSGNSDMYGPEYLMDYGIVLVTFNYRLGVLGFLNLGIEEAPGNVGLMDQVEALKWVKNNIASFGGDPNNVTIFGESAGGASVHYLMLSDLSKGLFHKAISQSGSAFNPWALQHDNNKENAFRLCKLLGHPVDNETEALKILRQAPIDDLIDNRIKPKDKGQLIIDYPFLPTIEKRYQNFEPFLDQSPLSKMQSGNFTKVPFICGYNSAEGILGLMDFKDDPNIFEKFEADFERFVPVDLNLTLRSKESKKLAEEMRKFYYQDEPVSSDNKEKFVSVISDTWFLRGIKNTARYIIEHSSEPLYLYVYSFDDFGFLKKLVLDPNIEGAAHGDELGYLFKMSFTEFPKDLPSAVVNRERLLQLWTNFAKTGNPTPEINDVITTKWDKATEEKSDHMDIDNTLRMIPDPDAKRLRFWNKFL
- juvenile hormone esterase activity [1]: juvenile hormone esterase activity
- carboxylesterase activity [2]: carboxylesterase activity
